Common to all, as to assay: EMSA
Holding throughout (settings): tags: MBP fusion
A general note: In EMSA bound probe runs differently from free probe, usually more slowly.

One data set addresses ZFP SBS#825 (synthetic). Put shortly: (§1)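 Purified ZFP was titrated against labeled double-stranded target (1 nM or lower, at least 10-fold below expected Kd) carrying the natural binding site with flanks. Binding buffer was 10 mM Tris pH 7.5, 100 mM KCl, 1 mM MgCl2, 0.1 mM ZnCl2, 5 mM DTT, 10% glycerol, 0.02% BSA, with equilibration for at least 45 min. Bound and free target were separated on a 10% polyacrylamide gel.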

A further data set deals with ZFP SBS#818 (synthetic). Put shortly:
as §1

A further data set has as its target T1, ZFP SBS#663 (synthetic).
T1 chain: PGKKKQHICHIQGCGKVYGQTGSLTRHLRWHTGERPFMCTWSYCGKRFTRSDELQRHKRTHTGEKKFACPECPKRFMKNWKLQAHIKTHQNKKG
Put shortly: as §1

The next data set concerns the target T2, ZFP SBS#664 (synthetic).
T2 chain: T1 chain with S51A, E53T, Q55R, K78A, N79S, W80S, K81R, Q83A, A84T
A digest of the protocol: as §1

Another data set has as its target ZFP SBS#662 (synthetic, UniProt P08047). Put shortly:
as §1

The next data set has as its target T3, ZFP SBS#839 (synthetic).
T3 chain: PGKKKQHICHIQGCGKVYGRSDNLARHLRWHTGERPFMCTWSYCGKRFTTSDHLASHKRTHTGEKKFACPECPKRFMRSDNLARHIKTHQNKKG
A digest of the protocol: as §1

In another data set the target is T4, ZFP SBS#840 (synthetic).
T4 chain: T3 chain with T50M, D52H, A55K, S56T
A digest of the protocol:
as §1

Another data set concerns the target T5, ZFP SBS#841 (synthetic).
T5 chain: T3 chain with T50Q, D52S
Put shortly: as §1

For another data set, the target named is T6, ZFP SBS#797 (synthetic).
T6 chain: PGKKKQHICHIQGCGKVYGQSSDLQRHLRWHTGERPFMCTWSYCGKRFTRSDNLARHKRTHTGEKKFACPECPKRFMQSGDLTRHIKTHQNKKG
A digest of the protocol:
as §1

For another data set, the target named is ZFP SBS#764 (synthetic). Put shortly:
as §1

In the next data set the target is T7, ZFP SBS#835 (synthetic).
T7 chain: T3 chain with S21A, N23T, A25R, T50Q, D52G, A55T, S56R, A83T, R84T
A digest of the protocol:
as §1

A further data set concerns the target T8, ZFP SBS#847 (synthetic).
T8 chain: T3 chain with N23D, A25T, T50Q, D52G, A55T, S56R, A83T, R84T
A digest of the protocol: as §1

Another data set addresses T9, ZFP SBS#834 (synthetic).
T9 chain: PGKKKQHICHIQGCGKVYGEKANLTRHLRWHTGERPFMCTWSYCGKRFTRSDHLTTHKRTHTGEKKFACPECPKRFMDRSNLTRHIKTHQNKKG
Put shortly: as §1

The target of the next data set is T10, ZFP SBS#833 (synthetic).
T10 chain: T9 chain with H53N, T56K
A digest of the protocol: as §1

Another data set addresses T11, ZFP SBS#832 (synthetic).
T11 chain: T9 chain with H53N
A digest of the protocol:
as §1

The target of another data set is ZFP SBS#763 (synthetic). A digest of the protocol: as §1
Sequence of ZFP SBS#763 (synthetic) (chain, as listed by the source): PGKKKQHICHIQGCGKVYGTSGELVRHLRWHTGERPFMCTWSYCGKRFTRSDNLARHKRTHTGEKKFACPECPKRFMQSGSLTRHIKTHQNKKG
A further data set has as its target T12, ZFP SBS#775 (synthetic).
T12 chain: T6 chain with S22G, D23A, Q25T, N53E, A55Q
A digest of the protocol: as §1

In the next data set the target is T13, ZFP SBS#774 (synthetic).
T13 chain: T6 chain with S21R, D23A, Q25A, N53E, A55Q
A digest of the protocol:
as §1

Another data set concerns the target ZFP SBS#773 (synthetic). Put shortly: as §1
The next data set deals with T14, ZFP SBS#805 (synthetic).
T14 chain: T6 chain with S21R, D23A, Q25A, N53E, A55Q, D81S
Put shortly: as §1

The next data set has as its target ZFP SBS#845 (synthetic). A digest of the protocol: as §1
For a further data set, the target named is T15, ZFP SBS#851 (synthetic).
T15 chain: T6 chain with D23N, S51R, N53V, A55M, R56N, Q78R, S79L, G80H, D81N, T83Q
Put shortly:
as §1

The target of the next data set is ZFP SBS#844 (synthetic). A digest of the protocol: as §1
Sequence of ZFP SBS#844 (synthetic) (chain, as listed by the source): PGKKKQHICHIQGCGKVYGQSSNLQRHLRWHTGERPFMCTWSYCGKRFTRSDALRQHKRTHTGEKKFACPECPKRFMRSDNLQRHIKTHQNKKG
The target in another data set is T16, ZFP SBS#846 (synthetic).
T16 chain: T6 chain with D23N, S51R, N53V, A55M, R56N, Q78R, G80D, D81N, T83Q
A digest of the protocol:
as §1

In a further data set the target is ZFP SBS#831 (synthetic). Put shortly:
as §1

In a further data set the target is ZFP SBS#830 (synthetic). Put shortly: as §1
Sequence of ZFP SBS#830 (synthetic) (chain, as listed by the source): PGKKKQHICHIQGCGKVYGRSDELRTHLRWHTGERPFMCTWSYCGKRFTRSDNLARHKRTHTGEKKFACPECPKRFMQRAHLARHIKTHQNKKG
In another data set the target is T17, ZFP SBS#766 (synthetic).
T17 chain: T9 chain with K21R, A22G, N23T, T25A, H53N, T55A, T56R, N81D
A digest of the protocol: as §1

A further data set addresses T18, ZFP SBS#765 (synthetic).
T18 chain: T6 chain with Q20E, S21R, S22G, D23T, Q25A, Q78E, S79R, D81T, T83A
Put shortly:
as §1

For another data set, the target named is T19, ZFP SBS#849 (synthetic).
T19 chain: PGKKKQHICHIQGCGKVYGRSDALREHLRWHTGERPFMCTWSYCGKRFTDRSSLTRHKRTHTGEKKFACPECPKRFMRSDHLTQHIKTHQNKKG
A digest of the protocol:
as §1

The target of another data set is T20, ZFP SBS#837 (synthetic).
T20 chain: T19 chain with T83S, Q84R
Put shortly: as §1

A further data set addresses T21, ZFP SBS#838 (synthetic).
T21 chain: T19 chain with Q84A
A digest of the protocol: as §1

Another data set has as its target ZFP SBS#798 (synthetic, UniProt P08047). A digest of the protocol:
as §1

Another data set addresses ZFP SBS#768 (synthetic). A digest of the protocol:
as §1

The target of a further data set is ZFP SBS#767 (synthetic, UniProt P08047). Put shortly:
as §1

A further data set concerns the target ZFP SBS#799 (synthetic). A digest of the protocol: as §1
The next data set concerns the target T22, ZFP SBS#800 (synthetic).
T22 chain: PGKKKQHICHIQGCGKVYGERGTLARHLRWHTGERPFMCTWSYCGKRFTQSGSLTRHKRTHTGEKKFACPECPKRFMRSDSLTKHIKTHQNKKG
A digest of the protocol: as §1

A further data set deals with T23, ZFP SBS#770 (synthetic).
T23 chain: T22 chain with E20D, G22S, T23S, A25T
Put shortly: as §1

Where a chain is given by its changes, count along the chain named.

Sequence of ZFP SBS#767 (P08047 other isoform, or with tags, fused parts or gaps): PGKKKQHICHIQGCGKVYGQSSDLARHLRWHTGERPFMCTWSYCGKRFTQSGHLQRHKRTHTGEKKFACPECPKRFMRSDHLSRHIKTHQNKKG
Sequence of ZFP SBS#798 (P08047 other isoform, or with tags, fused parts or gaps): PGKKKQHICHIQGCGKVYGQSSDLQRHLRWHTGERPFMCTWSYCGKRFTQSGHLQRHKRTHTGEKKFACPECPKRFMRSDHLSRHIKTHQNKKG
Sequence of ZFP SBS#831 (synthetic) (chain, as listed by the source): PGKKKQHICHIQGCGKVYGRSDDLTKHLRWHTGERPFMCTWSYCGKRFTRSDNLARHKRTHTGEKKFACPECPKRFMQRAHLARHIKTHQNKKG
Sequence of ZFP SBS#799 (synthetic) (chain, as listed by the source): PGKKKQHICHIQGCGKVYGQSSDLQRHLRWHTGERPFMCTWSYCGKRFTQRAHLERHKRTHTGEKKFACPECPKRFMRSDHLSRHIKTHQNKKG
Sequence of ZFP SBS#845 (synthetic) (chain, as listed by the source): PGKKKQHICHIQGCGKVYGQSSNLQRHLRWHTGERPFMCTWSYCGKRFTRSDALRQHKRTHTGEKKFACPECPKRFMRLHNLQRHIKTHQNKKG
Sequence of ZFP SBS#768 (synthetic) (chain, as listed by the source): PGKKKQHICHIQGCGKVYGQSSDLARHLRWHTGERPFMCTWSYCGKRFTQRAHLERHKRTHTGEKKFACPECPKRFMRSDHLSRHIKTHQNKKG
Sequence of ZFP SBS#662 (P08047 other isoform, or with tags, fused parts or gaps): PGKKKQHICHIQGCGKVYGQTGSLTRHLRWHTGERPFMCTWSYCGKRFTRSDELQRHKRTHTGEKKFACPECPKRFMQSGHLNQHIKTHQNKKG

B1: GAATGGGCAG (dsDNA)
DNA 1: GAATGGGCAG
DNA 2: CTGCCCATTC
As a reminder, the Kd is the equilibrium constant for the complex coming apart. A low value points to tighter binding. Turning to B1, the Kd in the data set with ZFP SBS#825 came to 37.3 nM; with ZFP SBS#818, 167 nM.

B2: AGAGCGGCAC (dsDNA)
DNA 1: AGAGCGGCAC
DNA 2: GTGCCGCTCT
On to B2, for which the Kd is 115 nM in the data set with ZFP SBS#663, 125 nM with ZFP SBS#664 and 50 nM with ZFP SBS#662.

B3: GAGTGTGAGG (dsDNA)
DNA 1: GAGTGTGAGG
DNA 2: CCTCACACTC
Regarding B3, the Kd in the data set with ZFP SBS#839 turned out to be 625 nM; with ZFP SBS#840 it was 625 nM; with ZFP SBS#841, 300 nM.

B4: GCAGAGGCTG (dsDNA)
DNA 1: GCAGAGGCTG
DNA 2: CAGCCTCTGC
As to B4, the Kd with ZFP SBS#797 was 17.5 nM; with ZFP SBS#764 it was 255 nM.

B5: TAGGGAGCGT (dsDNA)
DNA 1: TAGGGAGCGT
DNA 2: ACGCTCCCTA
Regarding B5, the Kd in the data set with ZFP SBS#835 and with ZFP SBS#847 was 150 nM throughout.

B6: GACTAGGACC (dsDNA)
DNA 1: GACTAGGACC
DNA 2: GGTCCTAGTC
Consider B6, for which the Kd with ZFP SBS#834 came out at 186 nM; in the data set with ZFP SBS#833 it was 136 nM; with ZFP SBS#832 it was 408 nM.

B7: GCAGAGGCTC (dsDNA)
DNA 1: GCAGAGGCTC
DNA 2: GAGCCTCTGC
As to B7, the affinity in the data set with ZFP SBS#763, expressed as Kd, was 275 nM.

B8: GCAGCGGTAG (dsDNA)
DNA 1: GCAGCGGTAG
DNA 2: CTACCGCTGC
On to B8, for which the Kd with ZFP SBS#775 was found to be 265 nM; in the data set with ZFP SBS#774, 258 nM; in the data set with ZFP SBS#773, 1250 nM; in the data set with ZFP SBS#805 it was 500 nM.

B9: GAGATGGATC (dsDNA)
DNA 1: GAGATGGATC
DNA 2: GATCCATCTC
With B9, the Kd came to 112 nM in the data set with ZFP SBS#845, 74 nM with ZFP SBS#851, 444 nM with ZFP SBS#844 and 890 nM with ZFP SBS#846.

B10: GGAGAGTCGG (dsDNA)
DNA 1: GGAGAGTCGG
DNA 2: CCGACTCTCC
For B10, the Kd worked out at 700 nM with ZFP SBS#831 and 683 nM with ZFP SBS#830.

B11: GCCGAGGCCG (dsDNA)
DNA 1: GCCGAGGCCG
DNA 2: CGGCCTCGGC
Regarding B11, the Kd in the data set with ZFP SBS#766 and with ZFP SBS#765 was 262 nM in each case.

B12: GGGGCCCTGG (dsDNA)
DNA 1: GGGGCCCTGG
DNA 2: CCAGGGCCCC
Regarding B12, the Kd with ZFP SBS#849 worked out at 29.1 nM; with ZFP SBS#837, 222 nM; with ZFP SBS#838 it was 300 nM.

B13: GGGGGAGCTG (dsDNA)
DNA 1: GGGGGAGCTG
DNA 2: CAGCTCCCCC
As to B13, the Kd turned out to be 3 nM in the data set with ZFP SBS#798, 2000 nM with ZFP SBS#768, 335 nM in the data set with ZFP SBS#767 and 1.85 nM in the data set with ZFP SBS#799.

B14: TTGGCAGCCT (dsDNA)
DNA 1: TTGGCAGCCT
DNA 2: AGGCTGCCAA
In the case of B14, the Kd is 400 nM with ZFP SBS#800 and 325 nM with ZFP SBS#770.
